For data set [1], the target named is T1, Recombinant human ADAM10 ectodomain (Homo sapiens, UniProt O14672).
T1 construct: Recombinant human ADAM10 ectodomain
T1 sequence (O14672 214-672 limits assumed): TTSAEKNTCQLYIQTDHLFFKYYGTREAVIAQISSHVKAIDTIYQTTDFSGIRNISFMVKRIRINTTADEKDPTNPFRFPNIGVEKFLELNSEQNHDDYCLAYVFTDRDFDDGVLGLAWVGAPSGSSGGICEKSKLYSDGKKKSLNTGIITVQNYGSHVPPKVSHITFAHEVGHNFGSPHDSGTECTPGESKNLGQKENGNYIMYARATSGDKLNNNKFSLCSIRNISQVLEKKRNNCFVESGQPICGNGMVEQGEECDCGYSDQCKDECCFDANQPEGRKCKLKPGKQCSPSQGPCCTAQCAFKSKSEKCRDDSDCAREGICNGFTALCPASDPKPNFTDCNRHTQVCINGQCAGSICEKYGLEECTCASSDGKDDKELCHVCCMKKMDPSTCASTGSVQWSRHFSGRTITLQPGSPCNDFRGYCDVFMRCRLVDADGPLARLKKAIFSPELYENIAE
As to the kind of experiment: ADAM10 quench fluorescent peptide cleavage assay. The format is biochemical. The settings on record: titrated concentrations.

Data set [2] addresses T2, Recombinant human TACE ectodomain (Arg215-Arg651) (Homo sapiens, UniProt P78536).
T2 construct: Mature recombinant TACE ectodomain (Arg^215-Arg^651) was expressed in baculovirus infected sf9 cells; made in house; host or cells: baculovirus infected Sf9 cells
As to the kind of experiment: Quenched fluorescent peptide cleavage assay, TACE ectodomain. Format: biochemical. The conditions noted are these: 1 nM TACE ectodomain; read-out: IC50, TACE ectodomain proteolysis, quenched fluorescent peptide. As to the method: (§1) Recombinant human TACE catalytic domain and TACE ectodomain were diluted to 1 nM in 50 mM Tris-HCl, 10 mM CaCl2, 0.05% Brij35, 1% DMSO, pH 7.4 and pre-incubated with titrated concentrations of inhibitor for 4-hours at room temperature. Following incubation, each reaction was separated into 200 μL technical quadruplets in a 96-well black Microwell plate (Nunc 237105), and the fluorogenic substrate methoxycoumarinyl acetyl-Lys-Pro-Leu-Gly-Leu-dinitrophenyl diaminopropionyl-Ala-Arg-NH2 (Peptides International SMO-3670-PI) was added to each well (final concentration 1 μM). Every 30 seconds fluorescence was excited at 320 nm and emission recorded at 405 nm in a Tecan Infinite-200 (at 37° C. for 2000 seconds). Individual readings were normalised against a substrate only control and compiled to produce a mean trend for each variable. A linear regression slope for each reaction was calculated in GraphPad Prism (ΔFU sec^−1) and proteolytic activity was expressed as the slope percentage of an untreated control (% ΔFU sec^−1). Final results represent mean values from three separate experiments.
(§2) Purified recombinant scFvs were subjected to an 8-point fluorometric titration ([TACE]=1 nM) (as above) and a 16-point titration ELISA ([TACE]-500 nM). […] Change in Gibb's Free Energy (ΔΔG) was calculated using the equation: ΔΔG=+RT1n(Ala/WT).

For data set [3], the target named is T3, Recombinant human TACE catalytic domain (Homo sapiens, UniProt P78536).
T3 construct: The mature catalytic domain of TACE (Arg^215-Val^477-GlySer-His^6) was prepared using an identical baculovirus system; GlySer-His6 (C); made in house; host or cells: baculovirus system (Sf9)
T3 sequence (P78536 215-477): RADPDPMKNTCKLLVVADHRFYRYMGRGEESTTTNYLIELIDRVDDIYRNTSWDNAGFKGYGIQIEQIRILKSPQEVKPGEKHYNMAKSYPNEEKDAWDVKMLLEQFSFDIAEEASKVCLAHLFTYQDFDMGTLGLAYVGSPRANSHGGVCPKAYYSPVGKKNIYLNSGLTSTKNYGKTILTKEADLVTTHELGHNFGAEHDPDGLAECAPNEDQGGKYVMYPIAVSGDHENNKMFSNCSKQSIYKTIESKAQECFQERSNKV
As to the kind of experiment: Quenched fluorescent peptide cleavage assay, isolated TACE catalytic domain. Format: biochemical. The settings on record: 1 nM TACE catalytic domain; read-out: IC50 Cat:WT, isolated catalytic domain, quenched fluorescent peptide. The method, then:
as §1, §2

For data set [4], the target named is T4, PDI treated TACE ectodomain (Homo sapiens, UniProt P78536).
T4 construct: Mature recombinant TACE ectodomain (Arg^215-Arg^651) was expressed in baculovirus infected sf9 cells; made in house; host or cells: baculovirus infected Sf9 cells
T4 sequence (P78536 215-651): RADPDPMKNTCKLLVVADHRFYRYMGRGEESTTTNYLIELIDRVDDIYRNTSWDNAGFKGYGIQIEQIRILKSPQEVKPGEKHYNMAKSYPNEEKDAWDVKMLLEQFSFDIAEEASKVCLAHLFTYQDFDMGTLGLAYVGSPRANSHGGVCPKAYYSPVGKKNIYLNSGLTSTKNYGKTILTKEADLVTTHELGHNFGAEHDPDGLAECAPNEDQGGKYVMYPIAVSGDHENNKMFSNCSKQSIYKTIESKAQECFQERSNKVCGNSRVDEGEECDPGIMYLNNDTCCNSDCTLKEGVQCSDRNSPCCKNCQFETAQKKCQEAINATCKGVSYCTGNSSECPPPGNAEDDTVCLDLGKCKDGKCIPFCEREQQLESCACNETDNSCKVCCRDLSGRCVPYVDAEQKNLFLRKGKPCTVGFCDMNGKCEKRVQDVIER
As to the kind of experiment: Antibody binding after PDI treatment of the TACE ectodomain.

Experimental findings from patent US9150659B2, “Anti-tace antibody molecules and their uses” (priority 2011, dated 2015) are described below.

What is called IC50 is the concentration that gives 50% inhibition.

T2 sequence (P78536 215-651): as above

Regarding `CC(C)(C)[C@H](NC(=O)[C@H](CCCc1ccc(Cl)cc1)CC(=O)NO)C(N)=O` [CT1746, reference compound], in data set [1], the “effect on ADAM10 proteolytic activity” value was “rapidly inhibits”.

B1: D1(A12) scFv: scFv format; VH SEQ ID NO: 7, VL SEQ ID NO: 9 (antibody, listed as Homo sapiens, V domains shown)
VH: EVQLVESGGGLVRPGGSLRLSCAASGFTFSSYAMSWVRQAPGKGLEWVSAISGSGGSTYYADSVKGRFTISRDNTKNSLYLQMTSLRADDTAFYYCVKDFGPGYGTGWFDYWGPGTLVTVSA
VL: SDIQMTQSPSSLSASVGDRVTITCRASQSISSYLNWYQQKPGKAPKLLIHDASSLQSGVPSRFSGSGSGTDFTLTISSLQPEDFATYYCQQSFSIPLTFGGGTKMDIKR
modifications: scFv linker
On to B1, for which the IC50 in data set [2] was 0.89 nM; in data set [3], 2.3 nM. In data set [4], the “immunoreactivity following PDI treatment of the TACE ectodomain” value was “largely resistant to PDI modulation”.
